Laboratory results taken from the DeepSol protein solubility set.

test: soluble on expression in E. coli; label from the status in PepcDB or PDB records

| Sequence | soluble on expression in E. coli |
| --- | --- |
| MAAMRKALPRRLVGLASLRAVSTSSMGTLPKRVKIVEVGPRDGLQNEKNIVSTPVKIKLIDMLSEAGLSVIETTSFVSPKWVPQMGDHTEVLKGIQKFPGINYPVLTPNLKGFEAAVAAGAKEVVIFGAASELFTKKNINCSIEESFQRFDAILKAAQSANISVRGYVSCALGCPYEGKISPAKVAEVTKKFYSMGCYEISLGDTIGVGTPGIMKDMLSAVMQEVPLAALAVHCHDTYGQALTNTLMALQMGVSVVDSSVAGLGGCPYAQGASGNLATEDLVYMLEGLGIHTGVNLQKLLEAGNFICQALNRKTSSKVAQATCKL | soluble |
| MAANSLPQDISDVELVHLARAAMKRAHCPYSKFPVGAALLTESGEIVQGCNVENASYGGTICAERSAIVSAVSQGYTKFRAIAVVTELSEPASPCGLCRQFLVEFGDYKVVVGTASNNKILITSTRALLPFAFTPESLDTFEQEKASEAKGLKQDDATEHNVTVVS | not soluble |
| MAAPSAGSWSTFQHKELMAADRGRRILGVCGMHPHHQETLKKNRVVLAKQLLLSELLEHLLEKDIITLEMRELIQAKVGSFSQNVELLNLLPKRGPQAFDAFCEALRETKQGHLEDMLLTTLSGLQHVLPPLSCDYDLSLPFPVCESCPLYKKLRLSTDTVEHSLDNKDGPVCLQVKPCTPEFYQTHFQLAYRLQSRPRGLALVLSNVHFTGEKELEFRSGGDVDHSTLVTLFKLLGYDVHVLCDQTAQEMQEKLQNFAQLPAHRVTDSCIVALLSHGVEGAIYGVDGKLLQLQEVFQLFDNANCPSLQNKPKMFFIQACRGDETDRGVDQQDGKNHAGSPGCEESDAGKEKLPKMRLPTRSDMICGYACLKGTAAMRNTKRGSWYIEALAQVFSERACDMHVADMLVKVNALIKDREGYAPGTEFHRCKEMSEYCSTLCRHLYLFPGHPPT | not soluble |
| MAAQQRDCGGAAQLAGPAAEADPLGRFTCPVCLEVYEKPVQVPCGHVFCSACLQECLKPKKPVCGVCRSALAPGVRAVELERQIESTETSCHGCRKNFFLSKIRSHVATCSKYQNYIMEGVKATIKDASLQPRNVPNRYTFPCPYCPEKNFDQEGLVEHCKLFHSTDTKSVVCPICASMPWGDPNYRSANFREHIQRRHRFSYDTFVDYDVDEEDMMNQVLQRSIIDQ | soluble |
| MAAQRIRAANASGLPRCKSEGTLIDLSEGFSETSFNDVKVPSPSALLVDNPTPFGNAKEVIAIKDYCPNNFTTLKFSKGDHLYVLDTSGGEWWYAHNTTEMGYIPSSYVQPLNYRNSTLSDSGMIDNLPDSPEEVAKELDLLGGGWTDDQKESGRPYSNNPFWNGVRTNPFLNGNAQPSTDELNPKSTVDLLLFDTGTSSFTESSSATTNSTGNIFDELPATNGLQVEQPVKRDNPFFRSKRSYSLSELSVLQAKSDAPPTSSFFTGLKSPVPEQFQSREDFRTAWLNHRKLARSCHDLDLLGQSPGWGQTQAVETNIVCKLDSSGGSVQLPDTNISIHVPEGHVAPGETQQISMKALLDPPLDLNSDRSTSVSPVVEVKLSNLEVSTFIILEMKVSAEVKGDIFSKSTVVLQCLRSDSKEGPYVPIPLAYSYGDTIQVQLDNLEPCMYLAIVAQGPNILYPSTVWDFINKRVTVGLYGPKHIHPSFKTVVTIFGHDCAPKTLLVSEVTRQAPSPAPVALQLWGKHQFILSRPQDLRVCMFSNMTNYEVKANEQARVVRGFQMKLGKVSRLIFSVISQNPNELSDFTLRVQVKDDQDTILTQFCVQTPQPPPKSAIKPSGQRRFLKKNEVGKIILSPFVVTTKYPTFQDRPVSSLKFGKLLKTVVRQNKSHYLLEYKKGDVVALLSEERIRLKGQLWTKEWYIGYYQGKVGLVHTKNVLVVGKARPSLFSGPELSTSVLLEQILRPCKFLTYIYASVRTLLMENISSWRAFADALGYGNLPLTFFCRAELDSEPERVASVLEKLKEDCNNPDNKDRKSFQKELVMALLKMDCQGLVVRLIQDFVLLTTAVEVAQRWRELAEKLAKVSKQQMDAYESPHRDRNGVVDSEAMWKPAYDFLLTWSHQIGDSYRDVIQELHIGLDKMKNPITRRWKHLTGTLILVNSLDILRAAAFSPADHDDFVI | soluble |
| MAARHHAFILAGTGSGCGKTTVTLGLLRLLQKRALRVQPFKVGPDYLDTGWHTAICGVASRNLDSFMLPPPVLNALFCEQMRQADIAVIEGVMGLYDGYGVDPNYCSTAAMAKQLGCPVILLVDGKAVSTSLAATVMGFQHFDPTLNLAGVIVNRVTSDAHYQLLKNAIEHYCSLPVLGYVPPCDGVALPERHLGLITARESLVNQQSWHDFAATLEQTVDVDALLSLSVLSALPAGMWPERPDNTAGAGLTLALADDEAFNFYYPDNIDLLERAGVNIVRFSPLHDRALPDCQMIWLGGGYPELYAADLAANTVMLKHLRAAHQRGVAIYAECGGLMYLGSTLEDSGGEIHQMANIIPGHSKMGKRLTRFGYCEAQAMQPTLLAAPGEIVRGHEFHYSDFIPETPAVMACRKVRDGRVLQEWTGGWQTGNTFASYLHVHFAQRPEMLQHWLAAARRVL | not soluble |
| MAARKVRIQTTINSNVYEHYIKKLLPEYGQLNKLIEEAVKQLFEIRENELSKLDRLRAKMMREAGVIAIGFESAEKALKGEIEKVLSENEINFLLEWYYGRPIEKIAFEEAIEFMRTALIAMNWAVDAKVNLEGEETHIMVRSNLGRGLAELLCMVIKHFFERNYGVEVRFSVYPGGYTLSFRHVSTDAYPCSSVRE | not soluble |
| MAASFVAVQGNADHGVKLKSGLTSAHRLQRRLSSDLRPLAAADLTGDSLPSEERRRTSSSTPDESLRQVMYLNCWAQG | soluble |
| MAASLRLLGAASGLRYWSRRLRPAAGSFAAVCSRSVASKTPVGFIGLGNMGNPMAKNLMKHGYPLIIYDVFPDACKEFQDAGEQVVSSPADVAEKADRIITMLPTSINAIEAYSGANGILKKVKKGSLLIDSSTIDPAVSKELAKEVEKMGAVFMDAPVSGGVGAARSGNLTFMVGGVEDEFAAAQELLGCMGSNVVYCGAVGTGQAAKICNNMLLAISMIGTAEAMNLGIRLGLDPKLLAKILNMSSGRCWSSDTYNPVPGVMDGVPSANNYQGGFGTTLMAKDLGLAQDSATSTKSPILLGSLAHQIYRMMCAKGYSKKDFSSVFQFLREEETF | soluble |
| MADDEDDIVWIREDTAQSSVPTSPTTPATIIEAAPVLSDAFDKPILKSVETISVSNGPPEVTISAPPPTPPAAPLAPQITPMVLSTVPDAAPAQDIPALILAALAPEPVPEPEPEVEAKQNVIVEKENEIKDQQQNDQLSAKLDPKTPNSVDDNSMSFDISECERKFNTAIREANDILEDFDKKSKQVAENTKFVAKELAELAADAPRVFQKTIEDHSQVPEISELPSGGLPKNVESVLIGEGILEEITGTLVLPTGQVLVTDERVGILLFNLEGDVLAKINPADFRKLWSPVYHKEHILVLADAKNAENHWSRHVIKFTCQLEYVAKIECPSWLAECTILRERLSIAHNDHLYLCVCGEIFSGIYELTPIGQWTELEYKLSEAYIDMLAFATIGPITQLLVVEGRRNYVLLVSVRESRIVDRKRMAICERPGALAKDEAGRLFVSNRFSASIQLVDTMRWVSEKNVAITEAFVRHFTACWGLLAIPLKNAVRLQRYSFRSLR | not soluble |
| MADDKDVLRDVWFGRIPACFTLSPDETTEREAEPYYLLLPRVSYLTLVTDKVKKHFLKVMKAEDVEEMWFEHEGTPLKWHYPIGVLFDLHASNSALPWNVTVHFKNFPEQDLLHCSTNSVIEAHFMSCIKEADALKHKGQVINDMQKKDHKQLWMGLQNDKFDQFWAMNRKLMEYPTEEGGFRYIPFRIYQTMSDRPFIQTLFRPVSSEGQALTLGDLLKELFPAAIEDEPKKFQVMIHGIEPLLETPIQWLSEHLSHPDNFLHISIIPAPSD | not soluble |
| MADDLGLDLGKKKKSKKVIKIDGDDAPVETGVEAVEDGLGELNLGAKKKKKTPKTAGEEVVEEKVPTLEIGIGAQNLIDAKGAWPDYTYEEALTLVYQVMKDKNPDFAGDKKKFAIKLPEVARAGSKKTAFSNFLEICRLMKRQDKHVLQFLLAELGTTGSIDGSNCLIVKGRWQQKQFESVLRKYIKEYVMCHTCKSPETQLTKDTRLFFLQCTNCGSRCSVTAIKSGFKAVVGKRAAIRRAEEATAGK | not soluble |
| MADGQVAELLLRRLEASDGGLDSAELAAELGMEHQAVVGAVKSLQALGEVIEAELRSTKHWELTAEGEEIAREGSHEARVFRSIPPEGLAQSELMRLPSGKVGFSKAMSNKWIRVDKSAADGPRVFRVVDSMEDEVQRRLQLVRGGQAEKLGEKERSELRKRKLLAEVTLKTYWVSKGSAFSTSISKQETELSPEMISSGSWRDRPFKPYNFLAHGVLPDSGHLHPLLKVRSQFRQIFLEMGFTEMPTDNFIESSFWNFDALFQPQQHPARDQHDTFFLRDPAEALQLPMDYVQRVKRTHSQGGYGSQGYKYNWKLDEARKNLLRTHTTSASARALYRLAQKKPFTPVKYFSIDRVFRNETLDATHLAEFHQIEGVVADHGLTLGHLMGVLREFFTKLGITQLRFKPAYNPYTEPSMEVFSYHQGLKKWVEVGNSGVFRPEMLLPMGLPENVSVIAWGLSLERPTMIKYGINNIRELVGHKVNLQMVYDSPLCRLDAEPRPPPTQEAA | soluble |
| MADGVLAVSQEGFNTLQSYNVGEKYTADLWIQQGGLKSTASVVSFSVDKALLDSMNIADGTSYELLPADCYQLTKSSVDIPANERLLKGELTYDPAKIQELSGYDHLKYVLPLRATSSGMPFVSGRSVLLLGFKVSEPIVTIMNAGVEEINLAEVKELPVQIGVPFTNKWEISCRLESRQSVIDAYNTAHGTYFSMLPSDAYVTPETPILHSGVNQVTATYKLKDDILPGNYMLPVQIAEVTSDATIRADKDVYAAYSIIKEGDKLSKTDWKIVSFTTEEASGEGSNNGHAKHLIDGNIETFWHSRWQGGSDPLPYEIIIDMNHRVKIAQIELLPRGRGSNNPIKVVRFEASEDGTNWESIGQFGFTNQDAALKYYVKSSTARYIKLVIPDGVGNGTVAAIRELDVRGTVVNLEHHHHHH | soluble |
| MADKLAFTTADLVTCLICIREFDTKTRKPKVLHCGHTVCEECTDNLRDFNAPLLVVRCPTCRQFTKRPVAESCNTNFQLMGYLAEKEKFEREKKAKGGKPKKPDQVLTLKMARSNRMEIHVASKKDLEGPELYLRKDSEGNTHIVVAGLTGSPAEVMKFITENGISIETGVLMPQVVYDEGRTRGGTEKFAKVNSMAAGQSAIKCTKPPVKLEELEFHKTFELKVSEESGSLKMELVQKEEVPKNGFGVFEGCMTKPSAKRLKEFTDSCPGTSAEDEVQVIEPEPLPKRRRTRK | not soluble |
